Data reported in patent US7514408.
Square brackets hold non-standard residues; d marks the D form. Ends that are not written are not given here. Sta = CC(C)C[C@H](N)[C@@H](O)CC(=O)O; Phg = N[C@H](C(=O)O)c1ccccc1; Tle = CC(C)(C)[C@H](N)C(=O)O; Abu = CC[C@H](N)C(=O)O

How the values were obtained:
[1] = molecular target: β-secretase (enzyme preparation not stated for the inhibitor assays) (human) (UniProt P56817); assay: cell-based or functional assay
[2] = molecular target: Swedish mutant P13-P5′ peptide with P1′ aspartic acid replaced with a valine (D→V), P05067
[3] = molecular target: Swedish mutant P13-P5′ peptide with P1′ aspartic acid replaced with a leucine (D→L), P05067
Sequence of Swedish mutant P13-P5′ peptide with P1′ aspartic acid replaced with a leucine (D→L), P05067 (P05067 whole entry, looked up, change not shown, tested part not stated): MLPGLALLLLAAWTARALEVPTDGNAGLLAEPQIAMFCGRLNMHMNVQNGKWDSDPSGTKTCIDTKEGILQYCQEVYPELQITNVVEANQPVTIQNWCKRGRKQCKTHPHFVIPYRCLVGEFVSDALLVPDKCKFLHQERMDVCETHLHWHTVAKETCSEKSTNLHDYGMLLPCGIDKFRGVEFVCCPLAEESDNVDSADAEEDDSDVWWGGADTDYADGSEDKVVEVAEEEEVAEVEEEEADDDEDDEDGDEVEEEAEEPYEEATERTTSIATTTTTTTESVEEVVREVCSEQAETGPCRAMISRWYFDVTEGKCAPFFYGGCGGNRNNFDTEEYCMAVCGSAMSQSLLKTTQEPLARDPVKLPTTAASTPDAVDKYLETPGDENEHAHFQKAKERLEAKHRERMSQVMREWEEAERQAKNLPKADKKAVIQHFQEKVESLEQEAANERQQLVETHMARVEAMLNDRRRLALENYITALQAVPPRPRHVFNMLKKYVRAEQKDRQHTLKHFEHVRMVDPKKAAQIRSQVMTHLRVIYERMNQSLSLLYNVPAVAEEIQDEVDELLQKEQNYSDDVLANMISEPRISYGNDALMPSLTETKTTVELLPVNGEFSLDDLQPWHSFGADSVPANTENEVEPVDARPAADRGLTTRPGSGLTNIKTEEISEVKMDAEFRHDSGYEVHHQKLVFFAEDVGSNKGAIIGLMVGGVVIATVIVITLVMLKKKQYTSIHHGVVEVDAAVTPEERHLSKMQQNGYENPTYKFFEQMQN

Sequence of Swedish mutant P13-P5′ peptide with P1′ aspartic acid replaced with a valine (D→V), P05067 (P05067 whole entry, looked up, change not shown, tested part not stated): as above

| Binder | IC50 Group, MBP C125 assay (Group II: =1<10 µM) [1] | also measured |
| --- | --- | --- |
| Ac-VM[Sta][Phg]AEF [heptamer peptide 7D (Ac-Val-Met-Sta-Phg-Ala-Glu-Phe)] | < 10 µM |  |
| Ac-VV[Sta]VAEF [heptamer peptide 7L (Ac-Val-Val-Sta-Val-Ala-Glu-Phe)] |  | IC50 Group, MBP C125 assay (Group IV: =20<50 µM) [1]: < 50 µM |
| Ac-VM[Sta]AEF [hexameric peptide 7N (Ac-Val-Met-Sta-Ala-Glu-Phe, P1′ deleted)] | < 10 µM |  |
| Ac-VM[Sta]AAEF [heptamer peptide 7E (Ac-Val-Met-Sta-Ala-Ala-Glu-Phe)] | < 10 µM |  |
| H-VM[Sta]VEF [hexameric peptide 7R ((NH2)Val-Met-Sta-Val-Glu-Phe, P2′ deleted)] | < 10 µM |  |
| Ac-VM[Sta][Tle]AEF [heptamer peptide 7F (Ac-Val-Met-Sta-tLeu-Ala-Glu-Phe)] |  | IC50 Group, MBP C125 assay (Group IV: =20<50 µM) [1]: < 50 µM |
| β-secretase purified from human brain (naturally occurring β-secretase) (protein) ETDEEPEEPGRRGSFVEMVDNLRGKSGQGYYVEMTVGSPPQTLNILVDTGSSNFAVGAAPHPFLHRYYQRQLSSTYRDLRKGVYVPYTQGKWEGELGTDLVSIPHGPNVTVRANIAAITESDKFFINGSNWEGILGLAYAEIARPDDSLEPFFDSLVKQTHVPNLFSLQLCGAGFPLNQSEVLASVGGSMIIGGIDHSLYTGSLWYTPIRREWYYEVIIVRVEINGQDLKMDCKEYNYDKSIVDSGTTNLRLPKKVFEAAVKSIKAASSTEKFPDGFWLGEQLVCWQAGTTPWNIFPVISLYLMGEVTNQSFRITILPQQYLRPVEDVATSQDDCYKFAISQSSTGTVMGAVIMEGFYVVFDRARKRIGFAVSACHVHDEFRTAAVEGPFVTLDMEDCGYNIPQTDESTLMTIAYVMAAICALFMLPLCLMVCQWRCLRCLRQQHDDFADDISLLK |  | substrate concentration dependence of hydrolysis by brain β-secretase [2]: The valine and leucine substituted Swedish peptides show saturation at a lower concentration than the parent Swedish peptide; substrate concentration dependence of hydrolysis by brain β-secretase [3]: The valine and leucine substituted Swedish peptides show saturation at a lower concentration than the parent Swedish peptide |

More lines, main results first:

| IC50 Group, MBP C125 assay (Group II: =1<10 µM) [1] | Binder | also measured |
| --- | --- | --- |
| < 10 µM | Ac-VE[Sta]VAEF [heptamer peptide 7K (Ac-Val-Glu-Sta-Val-Ala-Glu-Phe)] |  |
| < 10 µM | Ac-VM[Sta][Abu]AEF [heptamer peptide 7C (Ac-Val-Met-Sta-Abu-Ala-Glu-Phe)] |  |
| < 10 µM | Ac-VG[Sta]VAEF [heptamer peptide 7M (Ac-Val-Gly-Sta-Val-Ala-Glu-Phe)] |  |
